# Reference: publication PMC12517307
# Biological target: p53 (UniProt P04637)
# Sequence (P04637 whole entry): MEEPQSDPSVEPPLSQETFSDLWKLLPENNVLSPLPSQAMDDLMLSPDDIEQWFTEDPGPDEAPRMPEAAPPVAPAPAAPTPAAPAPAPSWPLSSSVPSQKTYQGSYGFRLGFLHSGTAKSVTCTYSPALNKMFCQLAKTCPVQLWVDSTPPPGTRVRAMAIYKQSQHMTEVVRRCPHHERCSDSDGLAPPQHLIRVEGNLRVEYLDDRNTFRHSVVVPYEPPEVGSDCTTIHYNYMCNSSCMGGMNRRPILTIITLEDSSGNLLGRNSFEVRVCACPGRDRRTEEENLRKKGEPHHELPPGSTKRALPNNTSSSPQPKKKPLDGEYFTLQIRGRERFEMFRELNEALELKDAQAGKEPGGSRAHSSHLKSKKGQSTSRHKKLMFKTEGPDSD
substance,measurement,value
"p300 acetyl transferase, Q09472 1-2414","p53 acetylation (IP with anti-p53, blot with anti-acetyl-lysine) in 3T3-L1 adipocytes overexpressing p53 and p300: reduction by NDN against control adipocytes; reversed by further addition of p300",51%
